{"source": "paper PMC3025492", "target": "GST-capicua (1-450) (Homo sapiens, UniProt Q96RK0-2 1-450)", "test": "EMSA"}
{"binder": "CRE probe (ETV4/ETV5 promoter CIC-responsive element) (dsDNA) DNA 1: GTCGCGTTTTTTATGAATGAAAAACGTCCTTACATTCATT DNA 2: AATGAATGTAAGGACGTTTTTCATTCATAAAAAACGCGAC", "values": [{"measurement": "binding result", "result": "binds"}]}
